Tested on: Escherichia coli TOP10
Experiment: shrunken log2 fold change of peptide-encoding DNA abundance (4.5 h post-induction vs induction); higher = less antimicrobial activity (less host growth inhibition)
Details: time post-induction: 4.5 h; library: site-saturation at positions 5, 18, 19, 20
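Note: peptides expressed intracellularly from a pBAD plasmid library in pooled LB shake-flask culture, induced with 0.3% L-arabinose, DNA abundance read by NGS, three biological replicates, DESeq2 with apeglm shrinkage.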

Row | Sequence | shrunken log2 fold change
1 | RRIRIRPPRLPRPRPRPKRPPRP | 0.449
2 | RRIRIRPPRLPRPRPRPKTFPRP | -0.0578
3 | RRIRIRPPRLPRPRPRPKWWPRP | 0.188
4 | RRIRIRPPRLPRPRPRPLAWPRP | 0.0118
5 | RRIRIRPPRLPRPRPRPLCAPRP | -0.183
6 | RRIRIRPPRLPRPRPRPLDWPRP | -0.418
7 | RRIRIRPPRLPRPRPRPLEHPRP | -0.105
8 | RRIRIRPPRLPRPRPRPLFAPRP | -0.0892
9 | RRIRIRPPRLPRPRPRPLFEPRP | -0.251
10 | RRIRIRPPRLPRPRPRPLFYPRP | -0.633
11 | RRIRIRPPRLPRPRPRPLGDPRP | -0.0585
12 | RRIRIRPPRLPRPRPRPLGPPRP | 0.0624
13 | RRIRIRPPRLPRPRPRPLKKPRP | -0.094
14 | RRIRIRPPRLPRPRPRPLLKPRP | -0.428
15 | RRIRIRPPRLPRPRPRPLLRPRP | -0.239
16 | RRIRIRPPRLPRPRPRPLNMPRP | -0.528
17 | RRIRIRPPRLPRPRPRPLNQPRP | -0.195
18 | RRIRIRPPRLPRPRPRPLNYPRP | -0.384
19 | RRIRIRPPRLPRPRPRPLQFPRP | -0.0429
20 | RRIRIRPPRLPRPRPRPLQQPRP | -0.293
21 | RRIRIRPPRLPRPRPRPLRRPRP | 0.0866
22 | RRIRIRPPRLPRPRPRPLRTPRP | -0.0568
23 | RRIRIRPPRLPRPRPRPLVLPRP | -0.458
24 | RRIRIRPPRLPRPRPRPLWGPRP | 0.0579
25 | RRIRIRPPRLPRPRPRPLWKPRP | 0.145

Row | Sequence | shrunken log2 fold change
26 | RRIRIRPPRLPRPRPRPLYMPRP | -0.918
27 | RRIRIRPPRLPRPRPRPLYWPRP | -0.456
28 | RRIRIRPPRLPRPRPRPMAKPRP | -0.00776
29 | RRIRIRPPRLPRPRPRPMDAPRP | 0.0153
30 | RRIRIRPPRLPRPRPRPMELPRP | -0.000689
31 | RRIRIRPPRLPRPRPRPMFDPRP | -0.0483
32 | RRIRIRPPRLPRPRPRPMFYPRP | -1.25
33 | RRIRIRPPRLPRPRPRPMGHPRP | -0.174
34 | RRIRIRPPRLPRPRPRPMHCPRP | -0.00192
35 | RRIRIRPPRLPRPRPRPMKIPRP | -0.167
36 | RRIRIRPPRLPRPRPRPMLFPRP | -0.328
37 | RRIRIRPPRLPRPRPRPMMVPRP | -0.00145
38 | RRIRIRPPRLPRPRPRPMNGPRP | 0.00766
39 | RRIRIRPPRLPRPRPRPMPSPRP | -0.0227
40 | RRIRIRPPRLPRPRPRPMPWPRP | 0.306
41 | RRIRIRPPRLPRPRPRPMQKPRP | 0.0387
42 | RRIRIRPPRLPRPRPRPMQSPRP | 0.0163
43 | RRIRIRPPRLPRPRPRPMSPPRP | 0.111
44 | RRIRIRPPRLPRPRPRPMTIPRP | -1.16
45 | RRIRIRPPRLPRPRPRPMVLPRP | -0.071
46 | RRIRIRPPRLPRPRPRPMYAPRP | -0.191
47 | RRIRIRPPRLPRPRPRPNDFPRP | -0.276
48 | RRIRIRPPRLPRPRPRPNECPRP | -0.0258
49 | RRIRIRPPRLPRPRPRPNFNPRP | -0.745
50 | RRIRIRPPRLPRPRPRPNGMPRP | -0.0985

Row | Sequence | shrunken log2 fold change
51 | RRIRIRPPRLPRPRPRPNHRPRP | 0.0615
52 | RRIRIRPPRLPRPRPRPNKLPRP | -0.499
53 | RRIRIRPPRLPRPRPRPNKWPRP | -0.0869
54 | RRIRIRPPRLPRPRPRPNLPPRP | -0.173
55 | RRIRIRPPRLPRPRPRPNLVPRP | -0.175
56 | RRIRIRPPRLPRPRPRPNNRPRP | -0.557
57 | RRIRIRPPRLPRPRPRPNNSPRP | -0.655
58 | RRIRIRPPRLPRPRPRPNPWPRP | -0.119
59 | RRIRIRPPRLPRPRPRPNQPPRP | -0.0903
60 | RRIRIRPPRLPRPRPRPNRPPRP | -0.212
61 | RRIRIRPPRLPRPRPRPNRQPRP | -0.56
62 | RRIRIRPPRLPRPRPRPNRWPRP | -0.0394
63 | RRIRIRPPRLPRPRPRPNTEPRP | -0.0443
64 | RRIRIRPPRLPRPRPRPNTGPRP | -0.663
65 | RRIRIRPPRLPRPRPRPNVIPRP | -0.82
66 | RRIRIRPPRLPRPRPRPNWEPRP | 0.00543
67 | RRIRIRPPRLPRPRPRPNYQPRP | -0.43
68 | RRIRIRPPRLPRPRPRPPAKPRP | 0.309
69 | RRIRIRPPRLPRPRPRPPAPPRP | 0.298
70 | RRIRIRPPRLPRPRPRPPCNPRP | -0.449
71 | RRIRIRPPRLPRPRPRPPCQPRP | 0.0801
72 | RRIRIRPPRLPRPRPRPPCSPRP | -0.339
73 | RRIRIRPPRLPRPRPRPPDYPRP | -0.0646
74 | RRIRIRPPRLPRPRPRPPEYPRP | -0.186
75 | RRIRIRPPRLPRPRPRPPFNPRP | -0.473

Row | Sequence | shrunken log2 fold change
76 | RRIRIRPPRLPRPRPRPPFWPRP | 0.288
77 | RRIRIRPPRLPRPRPRPPHDPRP | -0.0948
78 | RRIRIRPPRLPRPRPRPPIWPRP | -0.00949
79 | RRIRIRPPRLPRPRPRPPLMPRP | -0.16
80 | RRIRIRPPRLPRPRPRPPNPPRP | 0.765
81 | RRIRIRPPRLPRPRPRPPPSPRP | 0.399
82 | RRIRIRPPRLPRPRPRPPQHPRP | -0.107
83 | RRIRIRPPRLPRPRPRPPREPRP | 0.535
84 | RRIRIRPPRLPRPRPRPPSCPRP | -0.0736
85 | RRIRIRPPRLPRPRPRPPSGPRP | 0.537
86 | RRIRIRPPRLPRPRPRPPSYPRP | -0.336
87 | RRIRIRPPRLPRPRPRPPTAPRP | 0.335
88 | RRIRIRPPRLPRPRPRPPTDPRP | 1.33
89 | RRIRIRPPRLPRPRPRPPVWPRP | 0.187
90 | RRIRIRPPRLPRPRPRPPWFPRP | -0.136
91 | RRIRIRPPRLPRPRPRPPWHPRP | -0.126
92 | RRIRIRPPRLPRPRPRPPWIPRP | -0.173
93 | RRIRIRPPRLPRPRPRPPYLPRP | -0.612
94 | RRIRIRPPRLPRPRPRPPYSPRP | 0.0677
95 | RRIRIRPPRLPRPRPRPPYTPRP | -0.822
96 | RRIRIRPPRLPRPRPRPQACPRP | 0.126
97 | RRIRIRPPRLPRPRPRPQCCPRP | -0.0258
98 | RRIRIRPPRLPRPRPRPQDQPRP | -0.242
99 | RRIRIRPPRLPRPRPRPQDTPRP | -0.048
100 | RRIRIRPPRLPRPRPRPQDYPRP | -0.162

Row | Sequence | shrunken log2 fold change
101 | RRIRIRPPRLPRPRPRPQFNPRP | -0.846
102 | RRIRIRPPRLPRPRPRPQGIPRP | -0.012
103 | RRIRIRPPRLPRPRPRPQGVPRP | -0.0375
104 | RRIRIRPPRLPRPRPRPQHDPRP | -0.0884
105 | RRIRIRPPRLPRPRPRPQKDPRP | -0.421
106 | RRIRIRPPRLPRPRPRPQKGPRP | -0.33
107 | RRIRIRPPRLPRPRPRPQKIPRP | -0.148
108 | RRIRIRPPRLPRPRPRPQLEPRP | 0.000806
109 | RRIRIRPPRLPRPRPRPQLTPRP | -0.28
110 | RRIRIRPPRLPRPRPRPQMMPRP | -0.622
111 | RRIRIRPPRLPRPRPRPQMSPRP | -0.0696
112 | RRIRIRPPRLPRPRPRPQNHPRP | -0.871
113 | RRIRIRPPRLPRPRPRPQPWPRP | 0.102
114 | RRIRIRPPRLPRPRPRPQQHPRP | -0.551
115 | RRIRIRPPRLPRPRPRPQQWPRP | -0.421
116 | RRIRIRPPRLPRPRPRPQSCPRP | -0.0388
117 | RRIRIRPPRLPRPRPRPQTLPRP | -0.129
118 | RRIRIRPPRLPRPRPRPQTNPRP | -0.423
119 | RRIRIRPPRLPRPRPRPQVPPRP | 0.00863
120 | RRIRIRPPRLPRPRPRPQWDPRP | 0.92
121 | RRIRIRPPRLPRPRPRPQWTPRP | -0.0472
122 | RRIRIRPPRLPRPRPRPQYCPRP | -0.15
123 | RRIRIRPPRLPRPRPRPQYIPRP | -0.181
124 | RRIRIRPPRLPRPRPRPQYQPRP | -0.769
125 | RRIRIRPPRLPRPRPRPQYRPRP | -0.0599

Row | Sequence | shrunken log2 fold change
126 | RRIRIRPPRLPRPRPRPRAKPRP | 0.139
127 | RRIRIRPPRLPRPRPRPRANPRP | 0.0386
128 | RRIRIRPPRLPRPRPRPRCWPRP | 0.138
129 | RRIRIRPPRLPRPRPRPREVPRP | -0.118
130 | RRIRIRPPRLPRPRPRPRGAPRP | 0.175
131 | RRIRIRPPRLPRPRPRPRGDPRP | 0.389
132 | RRIRIRPPRLPRPRPRPRGLPRP | -0.272
133 | RRIRIRPPRLPRPRPRPRKCPRP | -0.599
134 | RRIRIRPPRLPRPRPRPRKNPRP | -0.133
135 | RRIRIRPPRLPRPRPRPRLAPRP | 0.237
136 | RRIRIRPPRLPRPRPRPRLCPRP | 0.0776
137 | RRIRIRPPRLPRPRPRPRLIPRP | -0.199
138 | RRIRIRPPRLPRPRPRPRMAPRP | 0.0331
139 | RRIRIRPPRLPRPRPRPRMEPRP | -0.00396
140 | RRIRIRPPRLPRPRPRPRMQPRP | -0.199
141 | RRIRIRPPRLPRPRPRPRNLPRP | -0.306
142 | RRIRIRPPRLPRPRPRPRNQPRP | -0.542
143 | RRIRIRPPRLPRPRPRPRPPPRP | 0.635
144 | RRIRIRPPRLPRPRPRPRQFPRP | -0.112
145 | RRIRIRPPRLPRPRPRPRRMPRP | -0.12
146 | RRIRIRPPRLPRPRPRPRSHPRP | -0.287
147 | RRIRIRPPRLPRPRPRPRSPPRP | 0.0527
148 | RRIRIRPPRLPRPRPRPRVAPRP | 0.386
149 | RRIRIRPPRLPRPRPRPRVQPRP | 0.0871
150 | RRIRIRPPRLPRPRPRPSACPRP | -0.561
